Source: publication PMC3325213 (PLoS Pathogens, 2012)

Biological target: the molecule itself
Test: SEC; analytical gel filtration, Superdex-200 10/300GL, 50 mM Tris pH 7, 500 mM NaCl, 5% glycerol; mass against protein standards

B1: Tsi2–H6 (C-terminal hexahistidine-tagged Tsi2) (natural protein)
chain: MNLKPQTLMVAIQCVAARTRELDAQLQNDDPQNAAELEQLLVGYDLAADDLKNAYEQALGQYSGLPPYDRLIEEPAS
notes: source: E. coli BL21 pLysS, purified (HisTrap FF, Sephacryl S-200 size exclusion); not shown: His6, C-terminal, kept
  stoichiometry N: 2
